According to patent US9888679B2, “Protection of progenitor cells and regulation of their differentiation” (Proteobioactives Pty Ltd, priority 2007, dated 2018):
Entries after “also recorded” stand apart in the source; their conditions may differ.

Key:
Murine ATDC5 cell line = assay: Proteoglycan biosynthesis (35S-GAG) in pellet cultures; assay type: cell-based; details: pellet cultures, FIG. 22
Description: FIG. 12. A bar graph of the concentration dependent effects of Pentosan Polysulfate (PPS), on the biosynthesis of Proteoglycans (PGs) as determined by the incorporation of radioactively labelled sulfate into the sulfated glycosaminoglycans (^35S-GAG) of PGs in 6 day pellet cultures of murine progenitor cells (ADTC-5). *=p<0.05 relative to control.
FIG. 22. A bar graph of the concentration dependent effects of rhNC4 (batch PBA-1202P) expressed by K. lactis, in the absence (maintenance media, MM) and presence of insulin (10 micrograms/mL) (differentiation media, DM), on the biosynthesis of Proteoglycans PGs) in pellet cultures of ATDC5 cells. Data is shown as the % change relative to controls taken to be 100%.
Murine Progenitor cells (cell lines C3H10T1/2 or ATDC5) purchased from RIKEN Cell Bank (Tsukuba, Japan) or human immunoselected Stro-1+ Progenitor cells (Mesoblast Ltd, Melbourne, Australia) were seeded in 2 ml screw-capped sterile centrifuge tubes and the total volume made-up to 1 ml with DMEM-High glucose medium containing 10% FBS. Progenitor cells were then centrifuged at 500 g for 10 min in a swing-out rotor at room temperature. The screw caps were loosened and the tubes placed in an incubator at 37° C., in a 5% CO2/95% air moist atmosphere. The pellets generally formed within 24 hours. Medium was changed daily in the first two days, then once every 2-3 days thereafter. On day 5 the medium was removed and to each tube was added 1 ml with DMEM-High glucose medium containing 10% FBS, 5.0 μCi/ml ^35S-H2SO4 and various concentrations of PPS (0, 0.1, 0.5, 1.0, 2.5, 5.0, 10.0, 20.0, μg/ml) (FIG. 12-15) or rhNC4 (0, 0.1, 0.5, 1.0, 2.0 μg/ml) (FIG. 22). Triplicate cultures were used for all concentration of drugs. The screw caps were loosened and the tubes placed in an incubator at 37° C., in a 5% CO2/95% moist air atmosphere […]. On day 6, 200 μl of stock papain solution [2.5 mg/ml papain, 7.9 mg/ml L-Cystein in papain buffer (0.1 M NaAC, 5 mM EDTA, pH6.0)] was added to each tube. The tubes were tightly capped and incubated at 65° C. for 2 hours. After papain digestion, 4 replicates of 200 μl of papain digested solution were separately transferred to a 96-well micro-titre plate (200 μl/well). The remaining solution was used for the DNA fluorometric assays which were undertaken in triplicate as described above. Biosynthesis of ^35S-GAGs was determined as described for the monolayer cultures and the results expressed as ^35-S-GAGs/μg DNA.
Data is shown as the % of controls taken to be 100%.

[1] = test system: murine ATDC5 progenitor cells; assay: Proteoglycan biosynthesis (35S-GAG) in monolayer cultures, maintenance or differentiation media; assay type: cell-based
Description: FIG. 21. A bar graph of the concentration dependent effects of rhNC4 (batch PBA-1202P) expressed by K. lactis, in the absence (maintenance media, MM) and presence of insulin (10 micrograms/mL) (differentiation media, DM), on the biosynthesis of Proteoglycans (PGs) as determined by the incorporation of radioactively labelled sulfate into the sulfated glycosaminoglycans (^35S-GAG) of PGs after 3 day culture with Murine ATDC5 progenitor cells. The data was expressed as % change relative to control cultures that contained no rhNC4. P<0.05 was statistically significant relative to control cultures.
FIG. 24. A bar graph of the concentration dependent effects of combinations of rhNC4 (batch PBA-1202P) and Pentosan Polysulfate (PPS) on the biosynthesis of 35S-PGs by monolayer cultures of Murine ATDC5 progenitor cells. Data is expressed relative to control (maintenance media, MM) which was taken as 100%.
FIG. 31. A bar graph of the concentration dependent effects of rhNC4 (batch PBA-1202P) expressed by K. lactis, in the absence (maintenance media, MM) and presence of insulin (10 micrograms/mL) (differentiation media, DM), on the biosynthesis of Proteoglycans (PGs) as determined by the incorporation of radioactively labelled sulfate into the sulfated glycosaminoglycans (^35S-GAG) of PGs after 3 day culture with Murine ATDC5 progenitor cells. The data was expressed as % change relative to control cultures that contained no rhNC4. P<0.05 was statistically significant relative to control cultures.
FIG. 32. A bar graph of the concentration dependent effects of Pentosan Polysulfate (PPS), in the presence of insulin (10 micrograms/mL), on the biosynthesis of Proteoglycans PGs) as determined by the incorporation of radioactively labelled sulfate into the sulfated glycosaminoglycans (^35S-GAG) of PGs after 3 day culture with Murine ATDC5 progenitor cells. The data was expressed as ^35S-GAG radioactivity as counts per minute (CPM) and decays per minute (DPM) relative to control cultures that contained no PPS. P<0.05 was statistically significant relative to control cultures.
Murine Progenitor cells (cell lines C3H10T1/2 or ATDC5) purchased from RIKEN Cell Bank (Tsukuba, Japan) or human immunoselected Stro-1+ Progenitor cells (Mesoblast Ltd, Melbourne, Australia) were seeded into 50 mL plastic culture flasks containing 1:1 high glucose DMEM/Ham's F-12 medium (Invitrogen) supplemented with 10% FBS (Sigma) and incubated at 37° C., in 5% CO2. […] The experiments were generally terminated after 48 hours incubation when proteoglycan biosynthesis was determined by measuring the incorporation of ^35SO4 into the glycosaminoglycans (^35S-GAGs) as described below.
The data was expressed as % change relative to control cultures that contained no rhNC4. […]

ATDC5 cell = assay: Kinetics of ATDC5 cell growth over 13 days; assay type: cell-based, murine; details: rhNC4 (batch PBA-1200P) 5 ug/ml or Insulin 10 ug/ml; 20,000 cells per well at Day 0; FIG. 30
Protocol: FIG. 30. A bar graph of the kinetics of ATDC5 cell growth induced by rhNC4 (batch PBA-1200P) (5 ug/ml) or Insulin (10 ug/ml) relative to control over 13 days. 20,000 cells per well were seeded at Day 0 (Start) with medium changes every 48 hrs. Insulin treated cultures reached confluence on day 6 and PBA-1200P on day 9. Control cultures also reached confluence on day 9 but in contrast to cultures containing insulin or PBA-1200P ceased to undergo replication.

B1: rhNC4: recombinant human non collagenous NC4 domain of the alpha-1 chain of type IX collagen, expressed by K. lactis (protein, listed as Homo sapiens)
chain: AVKRRPRFPVNSNSNGGNELCPKIRIGQDDLPGFDLISQFQVDKAASRRAIQRVVGSATLQVAYKLGNNVDFRIPTRNLYPSGLPEEYSFLTTFRMTGSTLKKNWNIWQIQDSSGKEQVGIKINGQTQSVVFSYKGLDGSLQTAAFSNLSSLFDSQWHKIMIGVERSSATLFVDCNRIESLPIKPRGPIDIDGFAVLGKLADNPQVSVPFELQWMLIHCDPLRPRRETCHELPARITPSQTTDER
Q: With B1 as the molecule, how does the “rhNC4 concentration producing the optimum effect on PG synthesis” value (Murine ATDC5 cell line; maintenance media) read?
A: Its value is 0.5 micrograms/mL.

Q: What about the PG synthesis (Murine ATDC5 cell line; rhNC4) of the same molecule?
A: The PG synthesis was “stimulatory effect”.

Q: What about the “rhNC4 concentration of maximum effects on PG synthesis” value ([1]; maintenance and differentiation media, FIG. 21) of the same molecule?
A: The value was 1 microgram/mL.

Q: What about the PG synthesis ([1]; rhNC4, absence (maintenance media) and presence of insulin (differentiation media), 3 day culture, FIG. 21/31) of the same molecule?
A: Its PG synthesis is “stimulated PG synthesis; also recorded: concentration dependent stimulation of PG synthesis”.

Q: And the “day on which cultures reached confluence” value (ATDC5 cell)?
A: The value was 9 days.
